Test results published in patent publication US20240115668A1 (KOLON TISSUEGENE, published 2024).

B1: TGN-1 peptide (peptide)
peptide: RRRRRRRRVTPDVSDNEPDHYRYSDTTDSDPE
modifications: three phosphorylated Serine residues (pS; PTEN Ser370, Ser380 and Ser385 = peptide positions 14, 24 and 29); C-terminal amide
B2: TGN-2 peptide (peptide)
peptide: RRRRRRRRHYRYSDTTDSDPENEPFDEDQHTQITKV
modifications: two phosphorylated Serine residues (pS; PTEN Ser380 and Ser385 = peptide positions 13 and 18); C-terminal amide

Target: Recombinant human PTEN protein (human, UniProt P60483 1-403 (dog entry), limits assumed)
Sequence (P60483 whole entry): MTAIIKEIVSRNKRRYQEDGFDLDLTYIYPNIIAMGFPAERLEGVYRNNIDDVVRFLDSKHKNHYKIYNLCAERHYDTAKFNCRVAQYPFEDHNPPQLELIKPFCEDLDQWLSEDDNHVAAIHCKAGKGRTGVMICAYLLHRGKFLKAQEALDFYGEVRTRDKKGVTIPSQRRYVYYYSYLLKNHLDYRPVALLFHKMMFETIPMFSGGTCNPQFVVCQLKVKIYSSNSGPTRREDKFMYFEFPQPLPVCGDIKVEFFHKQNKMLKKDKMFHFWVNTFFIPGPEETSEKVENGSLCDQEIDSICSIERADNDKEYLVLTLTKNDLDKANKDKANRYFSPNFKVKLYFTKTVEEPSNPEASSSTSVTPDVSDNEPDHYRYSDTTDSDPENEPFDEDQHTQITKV
Test: cell-based or functional assay

| PTEN activity remaining with 10 µM peptide, compared with positive control (in vitro PTEN activity assay) [%] | IC50, in vitro PTEN activity assay (lipid phosphatase, C8-PIP3 liposomes, Malachite Green) [µM] | Binder |
| --- | --- | --- |
| 54 |  | B1 |
| 86 | 87.1 | RRRRRRRRHYRYVDTTDVDPENEPFDEDQHTQITKV (C-terminal amide) [TGN-3 peptide] |
| 31 |  | B2 |
